In US20190248900A1 (Y BIOLOGICS, published 2019):
Changes are numbered by the printed parent chain.

B1: PD1-45D6(A/3H7) (antibody, V domains shown)
VH: QVQLVESGGGVVQPGRSLRLSCAASGFTFSSYAMHWVRQVPGKGLEWVAVISYDGNDKYYADSVKGRFTISRDNSKNTLYLQMNSLRAEDTAVYYCVPTTFEYWGQGSQVTVSS
VL: DIVMTQTPLSLPVTPGEPASISCRSSQSLLDSDDGNTYLDWYLQKPGQSPQLLIYTLSHRASGVPGRFSGSGSGTEFNLRISRVEAEDVGIYYCMQRVEFPFTFGQGTKLEIK
notes: scFv-phage in the screening ELISA; whole IgG in the other assays; also called 45D6-3H7; PD1 45D6 3H7
B2: PD1-49A2(A/1B2) (antibody, V domains shown)
VH: QVQLVESGGGVVQPGRSLRLSCAASGFTFLRYAMHWVRQAPGKGLEWVAVISYDGQDKYYADSVKGRFTISRDNSKNTLYLQMNSLRAEDTAVYYCTTTTFDSWGRGTLVTVSS
VL: B1 VL with G66D
notes: scFv-phage in the screening ELISA; whole IgG in the other assays; also called 49A2-1B2; PD1 49A2 1B2
B3: PD1-45D6(A/5B5) (antibody, V domains shown)
VH: B1 VH with S30R, S31T, V40A, S108T, Q109L
VL: B1 VL with T14M, P18A, D33E, G66D, E76D, N78T, R80K, E87D, L110V
notes: scFv-phage in the screening ELISA; whole IgG in the other assays; also called 45D6-5B5; PD1 45D6 5B5
B4: PD1-45D6(A/3D2) (antibody, V domains shown)
VH: B1 VH
VL: B1 VL with P18A, D33E, G66D, E76D, N78T, R80K, L110V
notes: scFv-phage in the screening ELISA; whole IgG in the other assays; also called 45D6-3D2; PD1 45D6 3D2

What follows are binders tested against T1, PD1-hFc (human, UniProt Q15116 25-170) (assay: SPR ProteOn XPR36, PD1-hFc immobilised, antibody as analyte).
T1 construct: extracellular domain; also called PD1-hFc protein; Human PD-1-Fc (S1420, Y-Biologics)
Experimental: A ProteOn XPR36 (BioRad) instrument was used. The GLC sensor chip (BioRad) was mounted on the instrument and washed with PBST buffer, and the carboxymethyldextran surface was activated with an EDC/sulfo-NHS mixed solution. PD1-hFc dissolved at a concentration of 5 ug/ml in a 10 mM sodium acetate buffer solution (pH 5.0) was injected and immobilized on the GLC sensor chip.
In order to deactivate the activated carboxyl groups that remain unreacted with the PD1 protein, 1 M ethanolamine was flowed and 10 mM glycine (pH 2.0) was injected in order to wash proteins that remain unbound to the sensor chip.
The equilibrium dissociation constant (KD) was calculated by plotting and fitting the sensogram data in the equilibrium state depending on concentration.

T1 sequence (Q15116 other isoform, or with tags, fused parts or gaps limits assumed): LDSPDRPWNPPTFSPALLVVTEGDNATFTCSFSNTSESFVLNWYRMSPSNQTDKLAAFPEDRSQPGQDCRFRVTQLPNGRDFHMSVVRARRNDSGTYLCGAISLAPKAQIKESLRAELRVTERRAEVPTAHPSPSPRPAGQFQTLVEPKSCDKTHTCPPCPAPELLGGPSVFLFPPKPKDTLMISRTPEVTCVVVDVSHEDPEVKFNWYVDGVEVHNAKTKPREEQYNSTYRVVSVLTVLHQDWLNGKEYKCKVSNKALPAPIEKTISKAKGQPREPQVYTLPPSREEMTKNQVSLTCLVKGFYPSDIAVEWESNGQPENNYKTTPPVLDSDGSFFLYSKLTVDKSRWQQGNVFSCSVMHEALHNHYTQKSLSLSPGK

Question: B1 was tested. Which Kd did it give?
Answer: 0.0253 nM

Question: And the koff?
Answer: 7.78e-06 s⁻¹

Question: And the kon?
Answer: 308000 M⁻¹ s⁻¹

Question: With B2 as the binder, how does the Kd read?
Answer: 0.166 nM

Question: And the koff?
Answer: 6.39e-05 s⁻¹

Question: What about the kon of the same binder?
Answer: 385000 M⁻¹ s⁻¹

Question: Which results are given for B3?
Answer: Kd: 0.0477 nM; koff: 1.41e-05 s⁻¹; kon: 296000 M⁻¹ s⁻¹

Question: For B4, which Kd is on record?
Answer: ≤ 0.001 nM

Question: What about the koff of the same binder?
Answer: ≤ 1e-07 s⁻¹

Question: And the kon?
Answer: 181000 M⁻¹ s⁻¹

What follows are binders tested against T2, human PD-1 (NM_005018.2) over-expressed on cells (human, UniProt Q15116 25-288) (assay: cell-based or functional assay).
T2 sequence (Q15116 25-288): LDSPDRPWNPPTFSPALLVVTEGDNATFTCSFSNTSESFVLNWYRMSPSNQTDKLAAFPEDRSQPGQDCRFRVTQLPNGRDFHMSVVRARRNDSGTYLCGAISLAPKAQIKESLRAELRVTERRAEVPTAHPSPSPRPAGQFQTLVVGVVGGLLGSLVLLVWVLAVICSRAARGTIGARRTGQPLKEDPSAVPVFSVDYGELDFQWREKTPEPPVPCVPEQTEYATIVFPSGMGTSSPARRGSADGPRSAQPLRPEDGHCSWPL

Question: For B1, which EC50 is on record?
Answer: 1.64 nM

Question: Which EC50 does the source give for B2 here?
Answer: 2.03 nM

Question: For B3, which EC50 is on record?
Answer: 0.906 nM

Question: Which EC50 does the source give for B4 here?
Answer: 2 nM

Target: T2, human PD-1 (NM_005018.2) over-expressed …
Experiment: cell-based or functional assay
Remark: another data set of the same source

Question: Which “EC50 [nM], PD1/PD-L1 blockade bioassay” value does the source give for B1 here?
Answer: 1.98 nM

Question: B2 was tested. Which “EC50 [nM], PD1/PD-L1 blockade bioassay” value did it give?
Answer: 1.3 nM

Question: B3 was tested. Which “EC50 [nM], PD1/PD-L1 blockade bioassay” value did it give?
Answer: 1.68 nM

Question: How did the “EC50 [nM], PD1/PD-L1 blockade bioassay” value turn out when B4 was run?
Answer: 2.16 nM
